3 molecules from publication PMC7969034 can be followed below.

Data set [1] concerns the target T1, p204 HINab (Mus musculus, UniProt P0DOV2 216-619).
T1 sequence: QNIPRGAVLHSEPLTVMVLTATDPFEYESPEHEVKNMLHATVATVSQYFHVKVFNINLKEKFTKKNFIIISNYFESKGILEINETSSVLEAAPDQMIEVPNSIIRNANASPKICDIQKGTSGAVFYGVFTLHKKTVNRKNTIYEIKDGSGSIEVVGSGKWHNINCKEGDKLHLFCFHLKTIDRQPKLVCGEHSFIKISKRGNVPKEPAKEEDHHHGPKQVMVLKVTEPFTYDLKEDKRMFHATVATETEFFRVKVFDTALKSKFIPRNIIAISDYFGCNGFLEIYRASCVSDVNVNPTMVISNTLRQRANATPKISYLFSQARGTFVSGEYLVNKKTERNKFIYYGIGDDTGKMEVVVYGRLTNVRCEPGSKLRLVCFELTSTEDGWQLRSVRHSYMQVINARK
As to the kind of experiment: X-ray crystallography.

Data set [2] deals with T1, p204 HINab. As to the kind of experiment: fluorescence polarization.
The target in data set [3] is T2, p204 HINa (Mus musculus, UniProt P0DOV2 216-417).
T2 sequence: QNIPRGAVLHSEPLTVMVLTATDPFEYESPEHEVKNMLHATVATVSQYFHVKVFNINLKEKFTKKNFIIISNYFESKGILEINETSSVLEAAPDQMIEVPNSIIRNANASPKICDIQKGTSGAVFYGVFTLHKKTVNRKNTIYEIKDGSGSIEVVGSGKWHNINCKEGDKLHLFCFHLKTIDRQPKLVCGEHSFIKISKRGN
The data set can be described thus: fluorescence polarization. Background: In fluorescence polarisation assays a small probe gives low polarisation when free and higher when bound to something large.

For data set [4], the target named is T3, p204 HINb (Mus musculus, UniProt P0DOV2 427-619).
T3 sequence: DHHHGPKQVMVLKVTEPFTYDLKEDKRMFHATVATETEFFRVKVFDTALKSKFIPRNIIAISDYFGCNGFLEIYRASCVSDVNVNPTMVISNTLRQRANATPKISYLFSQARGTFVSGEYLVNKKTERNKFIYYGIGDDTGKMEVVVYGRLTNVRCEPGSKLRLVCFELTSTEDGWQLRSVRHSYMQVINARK
The data set can be described thus: fluorescence polarization.

B1: 16 mer dsDNA (crystal) (dsDNA)
DNA 1: CCATCAGAAAGAGAGC
DNA 2: GCTCTCTTTCTGATGG
For B1, the binding result in data set [1] is on record as “binds”.

B2: 30 mer dsDNA (dsDNA)
DNA 1: CCATCAGAAAGAGGTTTAATATTTTTGTGA
DNA 2: TCACAAAAATATTAAACCTCTTTCTGATGG
In the case of B2, the Kd (as a rule, a measure of binding affinity in units of concentration) in data set [2] was found to be 13.5 ± 2.39 µM; in data set [3], 193 ± 77 µM; in data set [4], 157 ± 37.2 µM.

B3: 20 mer dsDNA (dsDNA)
DNA 1: TAAGACACGATGCGATAAAA
DNA 2: TTTTATCGCATCGTGTCTTA
Regarding B3, the Kd in data set [2] was 156 ± 37.5 µM.
